From PMC11984302

Target: thrombin (human plasma, Sigma-Aldrich) (Homo sapiens, UniProt P00734;P00734 328-363;364-622)
Test: EMSA; 1 nM aptamer, thrombin 0.1x-100x; SICS: thrombin in 1 M KCl (or 150 mM KCl), pH 7.5, 30 min incubation, 300 mV; gel: 16% Tris-Glycine; temperature not stated

B1: extended TBA 1 annealed to Cy5 gap oligo (mixed)
DNA 1: TCAGCTTGCGGAGATGCGATGGTTGGTGTGGTTGGATCGAGAAAAAGGTACGCCC
DNA 2: GGGCGTACCTTTTTCTCGATATCGCATCTCCGCAAGCTGA
binding result: binds
